Laboratory results: PMC8056390

Columns and labels:
GlnK with Y51F mutation = GlnK with Y51F mutation (UniProt P0AC55); test: native MS
[1] = molecular target: AmtB with the C312T mutation (trimeric ammonia channel from Escherichia coli) (Escherichia coli) (UniProt P69681); test: native MS

| stoichiometry N (GlnK with Y51F mutation) | stoichiometry N [1] | Substance |
| --- | --- | --- |
| 3 |  | GlnK with Y51F mutation (from UniProt P0AC55 1-112) (natural protein) |
|  | 3 | AmtB with the C312T mutation (trimeric ammonia channel from Escherichia coli) (from UniProt P69681 23-428) (natural protein) |
